The values that follow come from publication doi:10.1101/2024.04.30.591854.

Broadly, the Kd is the constant that tells how readily two partners part at equilibrium. Lower therefore signals tighter binding.

For this assay, the target named is RBK21 variable region (residues 148-299) (Plasmodium falciparum (strain Lek174)). Kind of assay: SPR.

KIR2DL1 as used in the SPR experiments with RBK21, sequence (P43626 22-348): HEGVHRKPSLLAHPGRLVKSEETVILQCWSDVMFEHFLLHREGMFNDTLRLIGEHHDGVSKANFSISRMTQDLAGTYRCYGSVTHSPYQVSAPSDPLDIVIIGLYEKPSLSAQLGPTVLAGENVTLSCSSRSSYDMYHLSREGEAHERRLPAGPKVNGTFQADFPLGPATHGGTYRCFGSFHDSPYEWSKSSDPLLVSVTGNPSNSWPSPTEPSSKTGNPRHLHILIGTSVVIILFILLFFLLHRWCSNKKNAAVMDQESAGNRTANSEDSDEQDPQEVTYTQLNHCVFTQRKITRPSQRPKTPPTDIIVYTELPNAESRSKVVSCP
KIR2DS1 as used in the SPR experiment with RBK21, sequence (Q14954 22-304): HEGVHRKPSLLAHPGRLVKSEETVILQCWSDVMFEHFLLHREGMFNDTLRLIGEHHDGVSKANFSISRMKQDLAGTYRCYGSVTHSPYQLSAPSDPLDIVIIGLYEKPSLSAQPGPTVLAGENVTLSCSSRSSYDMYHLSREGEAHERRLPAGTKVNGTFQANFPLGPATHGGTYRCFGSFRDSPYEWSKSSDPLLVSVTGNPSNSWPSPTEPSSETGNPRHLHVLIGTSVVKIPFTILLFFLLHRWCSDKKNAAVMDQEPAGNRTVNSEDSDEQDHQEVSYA

Take “KIR2DL1 as used in the SPR experiments with RBK21 (from UniProt P43626 22-348) (receptor)”: the Kd is 450 nM.

For “KIR2DS1 as used in the SPR experiment with RBK21 (from UniProt Q14954 22-304) (receptor)”, the dissociation constant Kd turned out to be 2000 nM.
